B1: FBXO33 (parent)
chain: RLRGLLRVLRGRPGAGSRRRGRMA
B2: TOR1AIP2 (parent)
chain: SPGHSSAGQEGEDTLRRRLLAPEA

Variants of: B1
Experiment: protein stability index of a GFP-peptide fusion (GPS, HEK-293T) (PSI 1-6); higher = more stable
Conditions: c terminus: a fixed tail appended
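Note: lentivirally expressed fusions sorted by FACS into six bins by GFP to DsRed ratio, PSI derived from sequencing read proportions per bin multiplied by bin number.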

Protein stability index, by site and new letter:
R20: V 2.39, C 1.72, Q 1.56, A 4.73, M 2.24, E 2.29, H 1.23, F 1.13
R10: I 2.25, C 2.99, A 1.96, S 1.93, N 1.72, P 2.59
V8: C 2.06, Y 2.64, N 2.01, S 1.93, F 2.83, I 2.84, W 1.87, R 2.54, P 4.41, T 1.81, K 1.91, H 2.1, D 2.47
R19: W 1.48, K 1.89, E 1.43, N 1.71, T 1.75, S 1.79, Q 1.75, H 1.88
S17: K 2.01, A 1.75, L 2.86, Y 2.52, T 3.32, F 2.58, E 2.36, G 1.92
L6: E 2.75, I 2.18, K 2.73, A 3.57, V 2.77, D 5.1, G 4.8, C 2.07, R 4.41, T 4.48
R12: T 2.03, D 2.31, G 2.53, S 2.19, L 1.66, Q 2.17, I 1.06, W 1.79, A 3.08
L2: W 3.3, P 4.19, F 2.1, H 4.34, E 3.99, K 3.56, Q 5.05, M 3.22
G14: C 1.84, W 2.76, Y 3, A 2.84, L 1.41, K 1.86, M 1.92, V 2.04, F 1.85
R18: I 1.72, V 1.26, Y 1.95, Q 2.83, L 1.15, H 1.59, P 1.08, E 1.99, C 1.8, G 1.16, F 1
G11: T 2.23, E 1.83, I 2.77, H 1.92, N 2.47, P 2.23, C 1.64
G4: P 2.23, D 1.88, R 2.06, H 1.29, L 2.2, C 1.45, E 2.08
R7: S 2.83, Y 2.41, L 2.56, W 1.69, T 2.05, N 2.35, G 2.86, I 2.17, E 2.04
G21: C 1.39
A15: R 2.46, T 1.47, W 1.8, K 1.25, G 1.54, D 1.66, Y 2.17, S 1.6, F 1.93, N 1.8, C 1.71, L 1.19, Q 1.49
R3: M 1.54, K 2.83, D 2.67, Q 2.21, T 2.23, V 1.02
L9: N 3.72, Y 2.73, K 3.26, E 3.75, Q 3.39, F 3.09, T 4, W 2.83, V 1.92
R1: A 1.7, C 1.2, G 1.84, L 1.59, S 1.75, D 2.92, N 2.01, W 1.69, F 1.53, Q 2.02
G16: Y 1.86, H 1.83, S 1.5, Q 1.65, I 1.01, T 2.96, L 1.44, N 2.57, F 1.79, E 2.94, P 2.06
L5: E 3.98, Y 3.49, A 4.21, S 4.64, V 2.71, C 3.17, D 4.05, N 4.52, M 2.88, P 4.32, W 1.85, Q 3.78, G 4.71
P13: K 3.26, S 3.48, C 2.09, V 2.68, H 1.77, I 1.6, Q 2.34, F 2.1, D 2.01

Variants of: B2
Experiment: as above
Conditions: c terminus: a fixed tail appended

Protein stability index of substitutions, site by site:
L19: H 5.52, M 3.39, W 4.3, P 5.29, I 3.39, K 5.54, Q 5.33, Y 4.86, G 5.45, N 5.34, D 5.35, A 5.4, E 5.46, R 4.89, T 5.55, F 4.73, S 5.24, V 4.9, C 4.99
E23: A 4.71, T 4.53, D 4.15, W 3.98, R 4.77, I 4.1, C 4.42, S 4.46, N 4.46, K 4.95, G 4.67, Q 4.59, V 4.38, L 3.87, F 3.78, H 4.09, P 5.13, Y 3.59, M 4.47
A21: C 3.31, S 3.08, R 4.89, W 4.16, I 4.51, H 5.26, Y 4.38, E 5.23, M 4.19, G 5.31, F 4.71, P 5.09, V 4.86, Q 4.94, K 4.89, N 4.9, T 5.39, D 5.37, L 4.58
A24: Y 3.42, P 4.94, R 4.54, M 2.76, G 5.14, K 4.82, T 4.61, Q 4.82, C 4.27, N 4.83, F 3.98, D 5.29, V 4.59, S 4.35, I 4.2, L 3.02, E 5.36, H 4.43, W 2.94
P22: R 4.99, F 4.92, A 4.42, C 4.41, H 5.27, T 4.47, L 4.59, D 5.34, W 4.84, S 4.92, Y 4.41, G 5.11, Q 5.42, M 4.93, K 5.46, I 5.16, E 4.95, V 4.8, N 5.76
L20: S 4.95, V 5.21, G 5.54, T 5.33, H 5.29, I 4.94, N 5.25, M 5.01, F 3.94, W 4.73, C 5.49, D 4.7, R 5.26, A 5.64, K 5.38, P 5.15, E 4.9, Q 5.63, Y 4.51
R17: Y 2.48, L 3.31, M 3.54, E 4.42, Q 4.37, S 4.71, V 3.9, F 2.09, T 4.58, G 5, W 2.36, N 4.67, P 5.04, I 3.81, K 4.76, H 3.85
R18: F 2.84, Q 3.89, I 3.07, S 5.01, D 4.89, M 3.29, P 5.5, C 4.4, Y 2.94, A 4.8, W 2.51, K 4.83, H 4.6, E 5.45, V 4.14, T 4.58, N 4.98, G 5.1, L 2.99
